Columns and labels:
HeLa Kyoto [1] = experiment: melting temperature (median over replicates), in situ; higher = more thermally stable
HeLa Kyoto [2] = experiment: solubility in G1/S (NP-40 vs SDS abundance) (log2 ratio); higher = more soluble; details: cell cycle stage: G1/S
HeLa Kyoto [3] = experiment: thermal stability score vs G1/S (z-score of summed log2 fold changes over temperatures); higher = more thermally stable than in G1/S
HeLa Kyoto [4] = experiment: solubility change mitosis vs G1/S (difference of NP-40 vs SDS log2 ratios) (log2 ratio difference); higher = more soluble in mitosis
[5] = cell cycle stage: early G1 (4.5 h after nocodazole release)
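Throughout, for melting temperature (median over replicates), in situ: HeLa Kyoto cells synchronized by double thymidine or nocodazole block, proteins quantified by TMT10plex mass spectrometry, three independent biological replicates.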
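Throughout, for solubility change mitosis vs G1/S (difference of NP-40 vs SDS log2 ratios): synchronized HeLa Kyoto cells (double thymidine block for G1/S, nocodazole release for mitosis), protein amounts in NP-40 versus SDS lysates quantified by mass spectrometry, three biological replicates.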
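Throughout, for solubility in G1/S (NP-40 vs SDS abundance): HeLa Kyoto cells arrested at G1/S by double thymidine block, proteins quantified by TMT10plex mass spectrometry in mild NP-40 versus SDS extracts, three biological replicates.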
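Throughout, for thermal stability score vs G1/S (z-score of summed log2 fold changes over temperatures): synchronized HeLa Kyoto cells, proteins quantified by TMT10plex mass spectrometry, three biological replicates, mitosis taken 0.5 h after nocodazole release, G1/S directly after double thymidine block.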

Sequence	melting temperature (HeLa Kyoto [1]; cell cycle stage: G1/S) [°C]	melting temperature (HeLa Kyoto [1]; cell cycle stage: mitosis) [°C]	solubility in G1/S (log2) (HeLa Kyoto [2])	thermal stability score (HeLa Kyoto [3]; [5])	thermal stability score (HeLa Kyoto [3]; cell cycle stage: mitosis)	solubility change mitosis (log2) (HeLa Kyoto [4])
MADGQVAELLLRRLEASDGGLDSAELAAELGMEHQAVVGAVKSLQALGEVIEAELRSTKHWELTAEGEEIAREGSHEARVFRSIPPEGLAQSELMRLPSGKVGFSKAMSNKWIRVDKSAADGPRVFRVVDSMEDEVQRRLQLVRGGQAEKLGEKERSELRKRKLLAEVTLKTYWVSKGSAFSTSISKQETELSPEMISSGSWRDRPFKPYNFLAHGVLPDSGHLHPLLKVRSQFRQIFLEMGFTEMPTDNFIESSFWNFDALFQPQQHPARDQHDTFFLRDPAEALQLPMDYVQRVKRTHSQGGYGSQGYKYNWKLDEARKNLLRTHTTSASARALYRLAQKKPFTPVKYFSIDRVFRNETLDATHLAEFHQIEGVVADHGLTLGHLMGVLREFFTKLGITQLRFKPAYNPYTEPSMEVFSYHQGLKKWVEVGNSGVFRPEMLLPMGLPENVSVIAWGLSLERPTMIKYGINNIRELVGHKVNLQMVYDSPLCRLDAEPRPPPTQEAA [FARSA]	50.2	50.4	0.0439	0.422	0.356	-0.0944
MADKEKKKKESILDLSKYIDKTIRVKFQGGREASGILKGFDPLLNLVLDGTIEYMRDPDDQYKLTEDTRQLGLVVCRGTSVVLICPQDGMEAIPNPFIQQQDA [LSM7]	55.3	53.7	0.0991	-1.51	-2.73	0.227
MADKVLKEKRKLFIRSMGEGTINGLLDELLQTRVLNKEEMEKVKRENATVMDKTRALIDSVIPKGAQACQICITYICEEDSYLAGTLGLSADQTSGNYLNMQDSQGVLSSFPAPQAVQDNPAMPTSSGSEGNVKLCSLEEAQRIWKQKSAEIYPIMDKSSRTRLALIICNEEFDSIPRRTGAEVDITGMTMLLQNLGYSVDVKKNLTASDMTTELEAFAHRPEHKTSDSTFLVFMSHGIREGICGKKHSEQVPDILQLNAIFNMLNTKNCPSLKDKPKVIIIQACRGDSPGVVWFKDSVGVSGNLSLPTTEEFEDDAIKKAHIEKDFIAFCSSTPDNVSWRHPTMGSVFIGRLIEHMQEYACSCDVEEIFRKVRFSFEQPDGRAQMPTTERVTLTRCFYLFPGH [CASP1]	51.5	49.6	0.0768	0.996	1.73	-0.0916
MADLAECNIKVMCRFRPLNESEVNRGDKYIAKFQGEDTVVIASKPYAFDRVFQSSTSQEQVYNDCAKKIVKDVLEGYNGTIFAYGQTSSGKTHTMEGKLHDPEGMGIIPRIVQDIFNYIYSMDENLEFHIKVSYFEIYLDKIRDLLDVSKTNLSVHEDKNRVPYVKGCTERFVCSPDEVMDTIDEGKSNRHVAVTNMNEHSSRSHSIFLINVKQENTQTEQKLSGKLYLVDLAGSEKVSKTGAEGAVLDEAKNINKSLSALGNVISALAEGSTYVPYRDSKMTRILQDSLGGNCRTTIVICCSPSSYNESETKSTLLFGQRAKTIKNTVCVNVELTAEQWKKKYEKEKEKNKILRNTIQWLENELNRWRNGETVPIDEQFDKEKANLEAFTVDKDITLTNDKPATAIGVIGNFTDAERRKCEEEIAKLYKQLDDKDEEINQQSQLVEKLKTQMLDQEELLASTRRDQDNMQAELNRLQAENDASKEEVKEVLQALEELAVNYDQKSQEVEDKTKEYELLSDELNQKSATLASIDAELQKLKEMTNHQKKRAAEMMASLLKDLAEIGIAVGNNDVKQPEGTGMIDEEFTVARLYISKMKSEVKTMVKRCKQLESTQTESNKKMEENEKELAACQLRISQHEAKIKSLTEYLQNVEQKKRQLEESVDALSEELVQLRAQEKVHEMEKEHLNKVQTANEVKQAVEQQIQSHRETHQKQISSLRDEVEAKAKLITDLQDQNQKMMLEQERLRVEHEKLKATDQEKSRKLHELTVMQDRREQARQDLKGLEETVAKELQTLHNLRKLFVQDLATRVKKSAEIDSDDTGGSAAQKQKISFLENNLEQLTKVHKQLVRDNADLRCELPKLEKRLRATAERVKALESALKEAKENASRDRKRYQQEVDRIKEAVRSKNMARRGHSAQIAKPIRPGQHPAASPTHPSAIRGGGAFVQNSQPVAVRGGGGKQV [KIF5B]	51.5	51.5	0.108	1.12	0.152	-0.0355
MADLDSPPKLSGVQQPSEGVGGGRCSEISAELIRSLTELQELEAVYERLCGEEKVVERELDALLEQQNTIESKMVTLHRMGPNLQLIEGDAKQLAGMITFTCNLAENVSSKVRQLDLAKNRLYQAIQRADDILDLKFCMDGVQTALRSEDYEQAAAHTHRYLCLDKSVIELSRQGKEGSMIDANLKLLQEAEQRLKAIVAEKFAIATKEGDLPQVERFFKIFPLLGLHEEGLRKFSEYLCKQVASKAEENLLMVLGTDMSDRRAAVIFADTLTLLFEGIARIVETHQPIVETYYGPGRLYTLIKYLQVECDRQVEKVVDKFIKQRDYHQQFRHVQNNLMRNSTTEKIEPRELDPILTEVTLMNARSELYLRFLKKRISSDFEVGDSMASEEVKQEHQKCLDKLLNNCLLSCTMQELIGLYVTMEEYFMRETVNKAVALDTYEKGQLTSSMVDDVFYIVKKCIGRALSSSSIDCLCAMINLATTELESDFRDVLCNKLRMGFPATTFQDIQRGVTSAVNIMHSSLQQGKFDTKGIESTDEAKMSFLVTLNNVEVCSENISTLKKTLESDCTKLFSQGIGGEQAQAKFDSCLSDLAAVSNKFRDLLQEGLTELNSTAIKPQVQPWINSFFSVSHNIEEEEFNDYEANDPWVQQFILNLEQQMAEFKASLSPVIYDSLTGLMTSLVAVELEKVVLKSTFNRLGGLQFDKELRSLIAYLTTVTTWTIRDKFARLSQMATILNLERVTEILDYWGPNSGPLTWRLTPAEVRQVLALRIDFRSEDIKRLRL [COG4]	48.7	49.6	-0.0589	0.91	1.79	-0.175
MADLEAVLADVSYLMAMEKSKATPAARASKKILLPEPSIRSVMQKYLEDRGEVTFEKIFSQKLGYLLFRDFCLNHLEEARPLVEFYEEIKKYEKLETEEERVARSREIFDSYIMKELLACSHPFSKSATEHVQGHLGKKQVPPDLFQPYIEEICQNLRGDVFQKFIESDKFTRFCQWKNVELNIHLTMNDFSVHRIIGRGGFGEVYGCRKADTGKMYAMKCLDKKRIKMKQGETLALNERIMLSLVSTGDCPFIVCMSYAFHTPDKLSFILDLMNGGDLHYHLSQHGVFSEADMRFYAAEIILGLEHMHNRFVVYRDLKPANILLDEHGHVRISDLGLACDFSKKKPHASVGTHGYMAPEVLQKGVAYDSSADWFSLGCMLFKLLRGHSPFRQHKTKDKHEIDRMTLTMAVELPDSFSPELRSLLEGLLQRDVNRRLGCLGRGAQEVKESPFFRSLDWQMVFLQKYPPPLIPPRGEVNAADAFDIGSFDEEDTKGIKLLDSDQELYRNFPLTISERWQQEVAETVFDTINAETDRLEARKKAKNKQLGHEEDYALGKDCIMHGYMSKMGNPFLTQWQRRYFYLFPNRLEWRGEGEAPQSLLTMEEIQSVEETQIKERKCLLLKIRGGKQFILQCDSDPELVQWKKELRDAYREAQQLVQRVPKMKNKPRSPVVELSKVPLVQRGSANGL [ADRBK1]	51.6	51.4	-0.107	1.35	0.436	-0.0655
